The text below walks through data of PMC12090761.

Test [1] addresses HIV-1 Gag (Pr55), immature Gag lattice of NL4-3 VLPs (HIV-1 (NL4-3)).
For test [2] the target is unchanged. As to conditions: scale: mol HA-Halo-gt-EnvCT/mol NL4-3.
Test [3] shares this target. Description: co-sedimentation; immature VLPs from HEK293T stripped of membrane with 0.05% NP-40 (Env trimers) or 0.075% NP-40 (mCD4 chimeras) or PBS, 15 minutes at 25°C, sedimented through 20% sucrose at 60,000 x g, 4°C, 1 hour; pellets blotted for gp41, CD4 and Pr55.
Test [4] shares this target. The source holds these as a separate data set.

Regarding HA-Halo-gt-EnvCT (712YA) chimera, the double exponential loss curve of the competitive inhibition of 712YA Env incorporation into VLPs; half-maximal inhibition in test [1] was 0.6 gp41/Pr55. Further, the restriction of the incorporation of Env-712YA trimers into VLPs (gp41/Pr55 by western blot; HEK293T co-transfected with chimera and NL4-3 pol(-) Env-712YA plasmids at 0 to 1.375 mol/mol) in test [2] turned out to be 0.3.
“HIV-1 WT Env (NL4-3), gp120/gp41 trimer (complex)”: in test [3], the percent co-sedimenting with Gag after detergent turned out to be 10%.
As to “monomeric CD4-EnvCT 712YA chimera (from UniProt P01730 26-420)”, the incorporation into VLPs released from transduced A2.01 T cells (western blot), mCD4-EnvCT relative to mCD4-ΔCT in test [4] turned out to be 16.7 fold.
